The source of these data is publication PMC10923870, “A three-level regulatory mechanism of the aldo-keto reductase subfamily AKR12D” (Nature Communications, 2024).

Broadly, the Kd is the concentration at which binding is half-saturated. A higher Kd goes with a looser complex. One may read the kcat as the number of substrate molecules converted per active site and unit of time at saturation. As a reminder, the kcat/Km is the second-order rate constant that governs catalysis at low substrate concentration. The stoichiometry N is a count of units in the complex or per binding partner.

Series [1] deals with T1, AKRtyl (Streptomyces xinghaiensis, UniProt A0A3R7J519).
T1 construct: gene SFRA_012675; N-terminally His6-tagged AKRtyl, octamer
In words: X-ray crystal structure ([…] Å), equilibrium tryptophan fluorescence quenching and stopped-flow. It counts as binding.

Series [2] deals with T2, AKR_coelicolor (Streptomyces coelicolor, UniProt Q9F2Z5).
T2 construct: gene SCO4352
T2 sequence (Q9F2Z5 1-330): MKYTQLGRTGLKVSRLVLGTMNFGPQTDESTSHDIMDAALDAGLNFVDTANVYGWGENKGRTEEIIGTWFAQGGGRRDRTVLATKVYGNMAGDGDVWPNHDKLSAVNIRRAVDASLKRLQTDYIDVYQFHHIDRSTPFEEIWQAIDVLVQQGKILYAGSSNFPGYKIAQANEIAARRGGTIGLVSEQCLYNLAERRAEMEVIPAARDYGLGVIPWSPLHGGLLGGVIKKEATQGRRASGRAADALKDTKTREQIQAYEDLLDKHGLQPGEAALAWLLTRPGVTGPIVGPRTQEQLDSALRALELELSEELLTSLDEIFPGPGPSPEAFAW
In words: steady-state kinetics, inhibition at high NADPH concentration. The class given is biochemical.

The test system of series [3] is NC(=O)C1=CN([C@@H]2O[C@H](COP(=O)(O)OP(=O)(O)OC[C@H]3O[C@@H](n4cnc5c(N)ncnc54)[C@H](OP(=O)(O)O)[C@@H]3O)[C@@H](O)[C@H]2O)C=CC1. In words: tryptophan fluorescence quenching (equilibrium and stopped-flow); steady-state kinetics (Km). The conditions noted are these: Trp331 of the C-terminal tail loop contributes to binding of both NADPHs; varied: cofactor. The class given is biochemical, Streptomyces xinghaiensis.

Series [4] concerns the molecule itself. The experiment in a line: crystal structure; sitting-drop vapour diffusion at 20 °C; AKRtyl at 10 mg/ml in 10 mM Tris-HCl pH 7.5, 150 mM NaCl; purified-state, apo, NADP(H), NADP+-tylosin and tylosin forms, all octameric.

Consider `NC(=O)C1=CN([C@@H]2O[C@H](COP(=O)(O)OP(=O)(O)OC[C@H]3O[C@@H](n4cnc5c(N)ncnc54)[C@H](OP(=O)(O)O)[C@@H]3O)[C@@H](O)[C@H]2O)C=CC1` [NADPH], for which the Kd in series [1] amounted to 450 nM. In series [2], the “steady-state kinetics, inhibition at high NADPH concentration” value is “inhibition by the cofactor NADPH at high concentrations was also observed for these two AKRs”.
As to “AKRtyl (Streptomyces xinghaiensis; W331A)”, in series [3], the K0.5 was determined as 11.03 µM, the kcat worked out at 0.18 ± 0.01 s⁻¹ and the kcat/Km was 16300 M⁻¹ s⁻¹.

B1: AKRtyl (tylosin reductase, aldo-keto reductase AKR12D1) (enzyme, S. fradiae)
chain: MEYTQLGRIGLKVSRLVLGTMNFGPTTDEAESHAIMDAALDAGINFFDTANVYGWGENKGRTEEILGSWFAQGGDRRDKVVLATKVYGNMGLDGPAWPNHDKLSALNIRRSVDASLKRLGTDHIDLYQFHHVDRDTPWDEIWQAMDVLVRQGKILYVGSSNFAGWNIAQANETAARHGRLGLVSEQCLYNLCERRAEMEVVPAAREYGLGVIAWSPLHGGLLGGAIRKEQEGGNRRAASGRAADALKDPQQREQIQRYEDLLDKHGLEPGEVALAWLLTRPGVTGPIVGPRTADQLASAVRAAELTLTDEVLTALDEIFPGPGPSPEAFAW
notes: AKRtyl, tylosin reductase of the tylosin producer S. fradiae, UniProt A0A3R7J519; protein coding gene cloned into pET28a between NdeI and XhoI; Octamer made of two homotetramers; also called WT; source: E. coli BL21 (DE3), purified (Ni-NTA, size-exclusion chromatography on Superdex 200 increase)
Regarding B1, the “stoichiometry N” value in series [4] came to 8.
